Measured values: US11994512B2, “Single-cell genomic methods to generate ex vivo cell systems that recapitulate in vivo biology with improved fidelity” (Massachusetts Institute of Technology, priority 2018, dated 2024)

B1: Q6PCN3 (protein, UniProt Q6PCN3 1-1308, looked up)
chain: MQCLAAALKDETNMSGGGEQADILPANYVVKDRWKVLKKIGGGGFGEIYEAMDLLTRENVALKVESAQQPKQVLKMEVAVLKKLQGKDHVCRFIGCGRNEKFNYVVMQLQGRNLADLRRSQPRGTFTLSTTLRLGKQILESIEAIHSVGFLHRDIKPSNFAMGRLPSTYRKCYMLDFGLARQYTNTTGDVRPPRNVAGFRGTVRYASVNAHKNREMGRHDDLWSLFYMLVEFAVGQLPWRKIKDKEQVGMIKEKYEHRMLLKHMPSEFHLFLDHIASLDYFTKPDYQLIMSVFENSMKERGIAENEAFDWEKAGTDALLSTSTSTPPQQNTRQTAAMFGVVNVTPVPGDLLRENTEDVLQGEHLSDQENAPPILPGRPPEGLGPGPHLVPHPGGPEAEVWEETDVNRNKLRINIGKTPCVEEEQSRGVGVPSSPVRAPPDSPTTPVRSLCYRRVNSPESERLSTAADGRVELQERRSRMDLPGSPSRQACSSQPAQMLSVDTGHADRQASGRMDVSASVEQEALSNAFRSVPLAEEEDFDSKEWVIIDKETELKDFPPGAEPSTSGTTDEEPEELRPLPEEGEERRRLGTEPTVRPRGRGMHTLTEEDPRQMLPQPAPPQLSQADGRSETSQPPTPGSPSHSPLHSGPRPRRRESDPTGPQRQVFSVAPPFEVNGLPRAVPLALPYQDFKRDLSDYRERARLLNRVRRVGFSHMLLTAPQVPLAPFQPQANGKEGEEEEEEEEEEEEEEEEEEEEEEEEEEEEEEEEEAGALGEVLGPRSGSSSEGSERSTERSQEGAPSTLLADDQKEARGRASMADGDLEPEEGSKTLVLVSPGDMKKSPVTAELAPDPDLGTLAALTPQHERPQPTGSQLDVSEPGTLSSILKSEPKPSGPGAGGGVGLVAPGAGVTAVTSPFTKVERTFVHIAEKSHLNVMSSGGQASRPEELSTGGELGLEVLSEGGIAEEGAPAPLENGMALAGLDGTEMESCALSGPPGETPSEVVTDSLPNGPALADGPAPASQQEPVTKKGTTISPSRHAMPGSRPRSRIPVLLSEEDTGSEPSGSLSAKERWSKRARPQQDLARLVMEKRQGRLLLRLASGASSSSSEEQRRASETLSGTGSEEDTPASEPTTALPRKAVRAATTRSRIPRPISVSMPVEGQQLPGRPHGAASATDLAITSRLQLQKPSGLAPAADLRPKQSASRGPGPGRAQVSKPAAPRSPGLPASTARHPSGSPRSQSLSRKESSSPSHQARPGVPPSRGVLQVRSQPEASPVAPKKGPKGKQLQTQRAATKGRAVVSEGRPGAR
modifications: full-length
B2: Q6DI86 (protein, UniProt Q6DI86 1-829, looked up)
chain: MFRLRSISLLSWRAFPLRPFSCESLITQMQKCTNEEQVFDLIETNTATLSEQQVGCAFNVLWQFQKQKTVLEKNVDHVRNHPQFLTLCSITTNHIPAMSDATLVDVLYSIKQFAVESHHPLIEALVTEAWKRLERFDTNVLSIFSTCLADQHLYFSPLMGKIADIVNRRLETIQDLRALSVLMVSISSLISPCFQERLVIRTELLFDTVNSSKVNIARRILLFLRNVKYSHYPLLERCNQVFIRNMSHLDLESISKILNLYQFLQFHSFEFVEAARGRLAEMTLPSDHPESFVRLFAALGPVARPEIKKQLKSTILLLSEELSSQQALIVLGAMEDMESRNSHLLKKIVSVLYKHLDNYKSIELLKIIQALTFLHFQSKELFMKLRELLLSRLEASVIPSEISVLVSALSMLPHPHLSETAVSRIEAVLPQCDFRELNDLVVYLMRWIQSDLVCLASTTGKQLDLLQKLDQLGRHRLQQSTNLDLLWEELKSLKGEWLHESLVEESIAALLRFMDEIDYSNIAKVASFLSRTNYLNTLLLDRIASVAIQQVEKIHPFSVLAIILPFSILNYDPPQKDEFFGACVQCCNSYLGTLDPGTLVFLGFSLAVLEYFPEDLLKKMFNIEFLARLDSQLEILPSSLSARIQFRLMELNRAVCLECPELQVPWFHDRFCQRQFNKDTGVMNGAQQQIYKMLAEVLGGHQCVKPSALSPYYHTVGFECILDKRKKPLPYESHSIAPRKSLGMHWDSRVEPRLPPEAERIAIELLDVRAFCSNIPHLKGKSAMKKRHLEILGYRVIQIPYFEWNSMAMSTKDARMDYLREHLFGEGKS
modifications: full-length
B3: Q6UQ17 (protein, UniProt Q6UQ17 1-1335, looked up)
chain: MDGVHLGENLEDKDTEFTWEVKANDRTYHKQFKKKGFLCWRQKKYKSNAIHTAKYNIFSFLPLNLYEQFHRMSNLYFLFIIILQGIPEISTLPWFTLFAPLVCLFVIRATRDLVDDIGRHRSDKIINNRPCQILRGKSFLWKKWKNLCVGDVVCLSKDSIVPADLLLLASTEPSSLCYVETADIDGETNLKFRQALTVTHHELTSPKKMASFQGTVTCEEPNSRMHHFVGSLEWNSRKYPLDIGNLLLRGCKIRNTDTCYGLVIYAGLDTKIMKNCGKIHLKRTKLDLMMNKLVALIFLSLVIASLLLTVGFTFMVKQFKAKHYYMSPTHGRSDAMESFFIFWGFLILLSVMVPMAMFIIAEFIYLGNSIFINWDLNMYYEPLDMPAKARSTSLNDQLGQVQYIFSDKTGTLTQNIMTFKKCCINGCIYDSDDEHGTLRKRNPYAWNPFADGKLQFYNKELESLVQGRQDRAVQEFWRLLAICHTVMVQEKDNQLLYQAASPDEEALVTAARNFGYVFLSRTQDTITLVELGEERVYQVLAMMDFNSVRKRMSVLVRNPEGSICLYTKGADTVILERLRSKGVMEATTEEVLAAFAEQTLRTLCLAYKDVEEDAYKEWEPEHQEAALLLQNRAQALHQVYNKMEQNLQLLGATAIEDKLQDGVPETIKCLKKGNIKIWVLTGDKPETAVNIGFACQLLSENMIILEDKDINQVLERYWEDNVHQKAFKMMTHHNMALVINGEFLDQLLLSLRKEPRALVQNAVVDEVAQEPVVSALDFLQKRRISQMWRNAGPSLGTSHSADSKIRESPEVQRERAFVDLASKCQAVICCRVTPKQKALVVALVKKYQQVVTLAIGDGANDVNMIKTADIGVGLAGQEGMQAVQNSDYVLAQFCYLQRLLLVHGRWSYMRVCKFLRYFFYKTVASMMAQIWFSLVNGFSAQPLYEGWFLALFNLLYSTLPVLYIGLFEQDVTAEKSLKMPELYMAGQKGELFNYSIFMQAITHGTITSMINFFVTVMVSSDMSKAGSSHDYQSLGVLVAISSLLSVTLEVMLVVKYWTLLFVGAVVLSLSSYVLMTSLTQSLWMYRISPKTFPFLFADYNVLFEPCSLLLIVLNVALNVLPMLALRTIHRTVLKQRPKGEEEAPSEEVAVEPAMRHLRRGIPARRSSYAFSHREGYANLITQGTILRRQTHVDDSDGGTVCESLNPPEEDIPLQNKDSVFNPRKISILAKKRRHFFGKGSQEEVHPNTSSQTMEKQPTIHRDSETQKLPTTTSATSGKLLPSASEDEAFYSVASQYTLASQPKHTDVHSSFWKSPLWRDSASSSPSQLEVPRKQS
modifications: full-length
B4: Q6J9G1 (protein, UniProt Q6J9G1 1-429, looked up)
chain: MGEKGHLSRVLLECSLSDKLCVVREKQYEVIIVPALLVGGFLILLAIILWLFIRGQRSQRQSPGPRGTASVPASRGRSQEAAGHGEKVLLPLKETSVEGFLRAATPRLAKLQVPREQLLEVLEQIHSGSCGTLYHATMTTKDHPKPKSVVLKALEDPVGLQEVQDFIGRIQFYQYLGKHKNLVQLEGCCTERLPLYMMLEDVVPGDLLSFLWTCRRDVMTMDGLLYDLTEKQIYHIGKQILLALEFLQEKHLFHGDVAARNILIQSDLTPKLCHLGLAYEVHAHGAISSARSSTIPLKWLAPERLLLRPASIRGDIWSFGILLYEMVTLGAPPYPEVPPTSILQYLQRKKIMKRPSSCSHAMYNIMKCCWRWSEDSRPLLGQLLQRLEAASRSADDKAVLQVPELVVPELYADVAGIRAESISYSFSVL
modifications: full-length
B5: Q64338 (protein, UniProt Q64338 1-706, looked up)
chain: MESPTKEIEEFESNSLKHLQPEQIEKIWLRLRGLRKYKKTSQRLRSLVKQLERGEASVVDLKKNLEYAATVLESVYIDETRRLLDTEDELSDIQSDAVPSEVRDWLASTFTRQMGMMLRRSDEKPRFKSIVHAVQAGIFVERMYRRTSNMVGLSYPPAVIDALKDVDTWSFDVFSLNEASGDHALKFIFYELLTRYDLISRFKIPISALVSFVEALEVGYSKHKNPYHNLMHAADVTQTVHYLLYKTGVANWLTELEIFAIIFSAAIHDYEHTGTTNNFHIQTRSDPAILYNDRSVLENHHLSAAYRLLQEDEEMNILVNLSKDDWREFRTLVIEMVMATDMSCHFQQIKAMKTALQQPEAIEKPKALSLMLHTADISHPAKAWDLHHRWTMSLLEEFFRQGDREAELGLPFSPLCDRKSTMVAQSQVGFIDFIVEPTFTVLTDMTEKIVSPLIDESSQTGGTGQRRSSLNSINSSDAKRSGVKSSGSDGSAPINNSVIPVDYKSFKATWTEVVQINRERWRAKVPKEEKAKKEAEEKARLAAEEKQKEMEAKSQAEQGTTSKGEKKTSGEAKSQVNGTRKGDNPRGKNSKGEKAGEKQQNGDLKDGKNKADKKDHSNTGNESKKTDGTKKRSHGSPAPSTSSTSRITLPVIKPPLRHFKRPAYASSSYAPSVPKKTDDHPVRYKMLDQRIKMKKIQNISHHWNKK
modifications: full-length
B6: Q64669 (protein, UniProt Q64669 1-274, looked up)
chain: MAARRALIVLAHSEKTSFNYAMKEAAVEALKKRGWEVLESDLYAMNFNPIISRNDITGELKDSKNFQYPSESSLAYKEGRLSPDIVAEHKKLEAADLVIFQFPLQWFGVPAILKGWFERVLVAGFAYTYAAMYDNGPFQNKKTLLSITTGGSGSMYSLQGVHGDMNVILWPIQSGILRFCGFQVLEPQLVYSIGHTPPDARMQILEGWKKRLETVWEETPLYFAPSSLFDLNFQAGFLMKKEVQEEQKKNKFGLSVGHHLGKSIPADNQIKARK
modifications: full-length

Test system: intracellular proteome of ENR+CD and ENR organoids
Assay: LC-MS/MS TMT proteomics of ENR+CD versus ENR organoids
Format: cell-based, C57BL/6 mice
Details: ENR+CD versus ENR organoids, sample pairs in aggregate (n=4, 2 technical replicates from two biological donors)

| Molecule | Average logFC |
| --- | --- |
| B1 | 1.301 |
| B2 | 1.459 |
| B3 | 1.464 |
| B4 | 1.195 |
| B5 | 1.157 |
| B6 | −1.573 |

Same assay, conditions: protein abundance ratio ENR+CD versus ENR organoids, sample pair M1-1; LC-MS/MS TMT proteomics

| Molecule | M1-1 Log2 Median Normalized |
| --- | --- |
| B1 | 0.917 |
| B2 | 1.46 |
| B3 | 1.126 |
| B4 | 1.631 |
| B5 | 0.73 |
| B6 | −1.603 |

Same assay, conditions: protein abundance ratio ENR+CD versus ENR organoids, sample pair M1-2; LC-MS/MS TMT proteomics

| Molecule | M1-2 Log2 Median Normalized |
| --- | --- |
| B1 | 1.005 |
| B2 | 1.066 |
| B3 | 1.134 |
| B4 | 1.194 |
| B5 | 0.722 |
| B6 | −2.001 |

Same assay, conditions: protein abundance ratio ENR+CD versus ENR organoids, sample pair M2-1; LC-MS/MS TMT proteomics

| Molecule | M2-1 Log2 Median Normalized |
| --- | --- |
| B1 | 1.5695 |
| B2 | 1.4225 |
| B3 | 1.7555 |
| B4 | 0.7015 |
| B5 | 1.3705 |
| B6 | −1.5715 |

Same assay, conditions: protein abundance ratio ENR+CD versus ENR organoids, sample pair M2-2; LC-MS/MS TMT proteomics

| Molecule | M2-2 Log2 Median Normalized |
| --- | --- |
| B1 | 1.711 |
| B2 | 2.251 |
| B3 | 1.841 |
| B4 | 1.233 |
| B5 | 1.805 |
| B6 | −0.844 |

Same assay, conditions: up = enriched in ENR+CD, down = enriched in ENR; FDR<0.05 and log fold change cut-off

| Molecule | change |
| --- | --- |
| B1 | up |
| B2 | up |
| B3 | up |
| B4 | up |
| B5 | up |
| B6 | down |
